B1: DNA-directed RNA polymerase subunit beta (Bacillus subtilis), P37870 (parent)
chain: MTGQLVQYGRHRQRRSYARISEVLELPNLIEIQTSSYQWFLDEGLREMFQDISPIEDFTGNLSLEFIDYSLGEPKYPVEESKERDVTYSAPLRVKVRLINKETGEVKDQDVFMGDFPIMTDTGTFIINGAERVIVSQLVRSPSVYFSGKVDKNGKKGFTATVIPNRGAWLEYETDAKDVVYVRIDRTRKLPVTVLLRALGFGSDQEILDLIGENEYLRNTLDKDNTENSDKALLEIYERLRPGEPPTVENAKSLLDSRFFDPKRYDLANVGRYKINKKLHIKNRLFNQRLAETLVDPETGEILAEKGQILDRRTLDKVLPYLENGIGFRKLYPNGGVVEDEVTLQSIKIFAPTDQEGEQVINVIGNAYIEEEIKNITPADIISSISYFFNLLHGVGDTDDIDHLGNRRLRSVGELLQNQFRIGLSRMERVVRERMSIQDTNTITPQQLINIRPVIASIKEFFGSSQLSQFMDQTNPLAELTHKRRLSALGPGGLTRERAGMEVRDVHYSHYGRMCPIETPEGPNIGLINSLSSYAKVNRFGFIETPYRRVDPETGKVTGRIDYLTADEEDNYVVAQANARLDDEGAFIDDSIVARFRGENTVVSRNRVDYMDVSPKQVVSAATACIPFLENDDSNRALMGANMQRQAVPLMQPEAPFVGTGMEYVSGKDSGAAVICKHPGIVERVEAKNVWVRRYEEVDGQKVKGNLDKYSLLKFVRSNQGTCYNQRPIVSVGDEVVKGEILADGPSMELGELALGRNVMVGFMTWDGYNYEDAIIMSERLVKDDVYTSIHIEEYESEARDTKLGPEEITRDIPNVGEDALRNLDDRGIIRIGAEVKDGDLLVGKVTPKGVTELTAEERLLHAIFGEKAREVRDTSLRVPHGGGGIIHDVKVFNREDGDELPPGVNQLVRVYIVQKRKISEGDKMAGRHGNKGVISKILPEEDMPYLPDGTPIDIMLNPLGVPSRMNIGQVLELHMGMAARYLGIHIASPVFDGAREEDVWETLEEAGMSRDAKTVLYDGRTGEPFDNRVSVGIMYMIKLAHMVDDKLHARSTGPYSLVTQQPLGGKAQFGGQRFGEMEVWALEAYGAAYTLQEILTVKSDDVVGRVKTYEAIVKGDNVPEPGVPESFKVLIKELQSLGMDVKILSGDEEEIEMRDLEDEEDAKQADGLALSGDEEPEETASADVERDVVTKE
partner: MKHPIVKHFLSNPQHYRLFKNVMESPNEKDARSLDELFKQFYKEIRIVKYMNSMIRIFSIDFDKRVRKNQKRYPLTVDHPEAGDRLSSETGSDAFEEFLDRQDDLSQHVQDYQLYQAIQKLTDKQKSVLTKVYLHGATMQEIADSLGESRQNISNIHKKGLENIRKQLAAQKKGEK
B2: Sigma-O factor regulatory protein RsoA (Bacillus subtilis), C0H3R4 (parent)
chain: MDGQFEQKKKQKDETYDIEHLIACFSPMIRKKLSNTSYQEREDLEQELKIKMFEKADMLLCQDVPGFWEFILYMVDENS

Variants of: B1
Settings: with sigo_bacsu sigO

| Variant | effect of a mutation on the interaction |
| --- | --- |
| F865K | decreasing interaction |
| I864K | disrupting interaction |

Variants of: B2
Settings: with rpoc_bacsu rpoC

| Variant | effect of a mutation on the interaction |
| --- | --- |
| MDGQFEQKKKQKDETYDIEHLIACFSPMIRKKLSNTSYQEREDLEAELKIKMFEKADMLLCQDVPGFWEFILYMVDENS [Q46A] | decreasing interaction strength |
| MDGQFEQKKKQKDETYDIEHLIACFSPMIRKKLSNTSYQEREDLEEELKIKMFEKADMLLCQDVPGFWEFILYMVDENS [Q46E] | decreasing interaction strength |
| MDGQFEQKKKQKDETYDIEHLIACFSPMIRKKLSNTSYQEREALEQELKIKMFEKADMLLCQDVPGFWEFILYMVDENS [D43A] | decreasing interaction strength |
| MDGQFEQKKKQKDETYDIEHLIACFSPMIRKKLSNTSYQERENLEQELKIKMFEKADMLLCQDVPGFWEFILYMVDENS [D43N] | decreasing interaction strength |
| MDGQFEQKKKQKDETYDIEHLIACFSPMIRKKLSNTSYQEREDEEQELKIKMFEKADMLLCQDVPGFWEFILYMVDENS [L44E] | decreasing interaction strength |
| MDGQFEQKKKQKDETYDIEHLIACFSPMIRKKLSNTSYQEREDAEQELKIKMFEKADMLLCQDVPGFWEFILYMVDENS [L44A] | decreasing interaction strength |
| MDGQFEQKKKQKDETYDIEHLIACFSPMIRKKLSNTSYQEAEDLEQELKIKMFEKADMLLCQDVPGFWEFILYMVDENS [R41A] | decreasing interaction |

From IntAct's records for PubMed 19940246
